Results reported in paper PMC6882858, “Seryl tRNA synthetase cooperates with POT1 to regulate telomere length and cellular senescence”.

B1: VEGFA promoter (dsDNA)
DNA 1: GGCGGGGCGGAGCCATGCGCCCCCCCCTTT
DNA 2: AAAGGGGGGGGCGCATGGCTCCGCCCCGCC
B2: Telomere [TTAGGG]5 (dsDNA)
DNA 1: TTAGGGTTAGGGTTAGGGTTAGGGTTAGGG
DNA 2: CCCTAACCCTAACCCTAACCCTAACCCTAA
B3: Control random DNA (dsDNA)
DNA 1: TCGAAGTCGAAGCATGGGTCGAAGCATGGG
DNA 2: CCCATGCTTCGACCCATGCTTCGACTTCGA

The binders below were run against SerRS (seryl-tRNA synthetase) (human, UniProt P49591 1-514) (assay: EMSA; 5 mM MgCl2, poly(dG-dC); 20 mM Tris-HCl pH 8.0, 60 mM KCl, 5 mM MgCl2, 0.1 mg/mL BSA, 10 ng/uL poly(dG-dC), 1 mM DTT, 0.8 pmol labeled DNA, 30 min, room temperature; 5% native PAGE). Settings: protein: recombinant; tags: His6 (pET20b; Ni-NTA); chain copies: 2; label: 5' 32P; blunt.
Sequence of SerRS (seryl-tRNA synthetase) (P49591 whole entry): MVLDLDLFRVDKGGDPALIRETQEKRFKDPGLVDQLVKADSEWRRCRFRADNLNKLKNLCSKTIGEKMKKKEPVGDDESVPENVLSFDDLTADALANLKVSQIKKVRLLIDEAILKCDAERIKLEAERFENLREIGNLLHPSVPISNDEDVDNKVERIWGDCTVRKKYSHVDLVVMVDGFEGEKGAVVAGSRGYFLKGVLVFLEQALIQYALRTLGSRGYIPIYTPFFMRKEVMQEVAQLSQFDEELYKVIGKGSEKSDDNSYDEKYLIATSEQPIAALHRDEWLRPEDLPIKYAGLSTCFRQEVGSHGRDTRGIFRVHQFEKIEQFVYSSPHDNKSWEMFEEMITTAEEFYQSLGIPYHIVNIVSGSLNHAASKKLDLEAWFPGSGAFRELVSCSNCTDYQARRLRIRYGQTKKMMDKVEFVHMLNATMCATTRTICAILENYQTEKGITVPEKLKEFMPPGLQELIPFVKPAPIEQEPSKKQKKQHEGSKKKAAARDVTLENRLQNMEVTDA
B1: binds.
B2: binds.
B3: no binding.
